Ten substances from patent publication US20230348575A1 can be followed below.

Assay [1] deals with RSV F peptides F85-93 and F249-258 presented to CD8+ T cells of BALB/c mice (RSV, A2 strain).
The target of assay [2] is RSV F peptide 51-66 presented to CD4+ T cells of BALB/c mice (RSV, A2 strain).
For assay [3] the target is unchanged. This is another data set of the same source.
The target in assay [4] is RSV F peptides F85-93 and F249-258 presented to CD8+ T cells of BALB/c mice (RSV, A2 strain). The source holds these as a separate data set.

Like-named read-outs stand apart in the source and are kept apart here.

For the substance “Splenic T cells of BALB/c mice vaccinated with A317 RNA (10 ug) with electroporation, day 49 (Example 7B, 10-1001) (cells without a defined receptor)”, the CD8+ CD4- splenic T cells: % cytokine-positive (IFNg+), intracellular cytokine staining in assay [1] stood at 0.85%. This substance came in with a CD4+ CD8- splenic T cells: % cytokine-positive (TNFa+), intracellular cytokine staining in assay [2] of 0.05%.
The substance “Splenic T cells of BALB/c mice vaccinated with A317 RNA formulated with CNE17, day 49 (Example 7B, 10-1001) (cells without a defined receptor)” returned a CD8+ CD4- splenic T cells: % cytokine-positive (IFNg+), intracellular cytokine staining, 1 ug in assay [1] of 1.25%. The CD4+ CD8- splenic T cells: % cytokine-positive (TNFa+), intracellular cytokine staining, 1 ug in assay [2] amounted to 0.05%.
In assay [1], “Splenic T cells of BALB/c mice vaccinated with A317 RNA in liposomes RV01(01), day 49 (Example 7B, 10-1001) (cells without a defined receptor)” showed a CD8+ CD4- splenic T cells: % cytokine-positive (IFNg+), intracellular cytokine staining, 1 ug of 3.69%. This substance yielded a CD4+ CD8- splenic T cells: % cytokine-positive (TNFa+), intracellular cytokine staining, 1 ug in assay [2] of 0.09%.
In assay [3], “Splenic T cells of BALB/c mice vaccinated with A317 RNA in liposomes RV01(01), day 49 (Example 7C, 10-1018) (cells without a defined receptor)” returned a CD4+ CD8- splenic T cells: % cytokine-positive (TNFa+), intracellular cytokine staining, 1 ug of 0.09%. Further, the CD8+ CD4- splenic T cells: % cytokine-positive (IFNg+), intracellular cytokine staining, 10 ug in assay [4] was determined as 3.32%.
As for “Splenic T cells of BALB/c mice vaccinated with VRPs expressing RSV-F (1E6 IU), day 49 (Example 7B, 10-1001) (cells without a defined receptor)”, the CD8+ CD4- splenic T cells: % cytokine-positive (IFNg+), intracellular cytokine staining in assay [1] worked out at 3.48%. This substance also showed a CD4+ CD8- splenic T cells: % cytokine-positive (TNFa+), intracellular cytokine staining in assay [2] of 0.1%.
“Splenic T cells of BALB/c mice vaccinated with VRPs expressing RSV-F (1E6 IU), day 49 (Example 7C, 10-1018) (cells without a defined receptor)” came in with a CD4+ CD8- splenic T cells: % cytokine-positive (TNFa+), intracellular cytokine staining in assay [3] of 0.07%. The substance further came in with a CD8+ CD4- splenic T cells: % cytokine-positive (IFNg+), intracellular cytokine staining in assay [4] of 2.45%.
“Splenic T cells of BALB/c mice vaccinated with naked A317 RNA (1 ug), day 49 (Example 7B, 10-1001) (cells without a defined receptor)” displayed a CD8+ CD4- splenic T cells: % cytokine-positive (IFNg+), intracellular cytokine staining in assay [1] of 0.74%. The CD4+ CD8- splenic T cells: % cytokine-positive (TNFa+), intracellular cytokine staining in assay [2] turned out to be 0.03%.
In assay [3], “Splenic T cells of BALB/c mice vaccinated with naked A317 RNA, day 49 (Example 7C, 10-1018) (cells without a defined receptor)” displayed a CD4+ CD8- splenic T cells: % cytokine-positive (TNFa+), intracellular cytokine staining, 1 ug of 0.03%. The CD8+ CD4- splenic T cells: % cytokine-positive (IFNg+), intracellular cytokine staining, 1 ug in assay [4] was determined as 1.68%.
Substance “Splenic T cells of unvaccinated BALB/c mice, day 49 (Example 7B, 10-1001) (cells without a defined receptor)” displayed a CD8+ CD4- splenic T cells: % cytokine-positive (IFNg+), intracellular cytokine staining in assay [1] of 0.01%. The substance further yielded a CD4+ CD8- splenic T cells: % cytokine-positive (TNFa+), intracellular cytokine staining in assay [2] of 0%.
Take “Splenic T cells of unvaccinated BALB/c mice, day 49 (Example 7C, 10-1018) (cells without a defined receptor)”: the CD4+ CD8- splenic T cells: % cytokine-positive (TNFa+), intracellular cytokine staining in assay [3] stood at 0.01%. The substance also displayed a CD8+ CD4- splenic T cells: % cytokine-positive (IFNg+), intracellular cytokine staining in assay [4] of 0.01%.
